Data on 18 molecules can be found in patent US20220010021A1 (Sanofi, published 2022).

Broadly, the koff is the rate constant with which the complex falls apart. A lower koff goes with a long-lived complex.

Assay [1] concerns the target cell surface receptor composed of FGFR1c and co-receptor beta-Klotho (KLB) (human, UniProt P11362 22-822; Q86Z14 1-1044). Nature of the assay: cell-based or functional assay. On Mean E max, Luciferase reporter gene assay: reference of the scale not given here.
The next assay addresses T1, human beta-Klotho (KLB) (human, UniProt Q86Z14 53-997).
T1 construct: Bought protein; also called human KLB; β-Klotho
T1 sequence (looked up): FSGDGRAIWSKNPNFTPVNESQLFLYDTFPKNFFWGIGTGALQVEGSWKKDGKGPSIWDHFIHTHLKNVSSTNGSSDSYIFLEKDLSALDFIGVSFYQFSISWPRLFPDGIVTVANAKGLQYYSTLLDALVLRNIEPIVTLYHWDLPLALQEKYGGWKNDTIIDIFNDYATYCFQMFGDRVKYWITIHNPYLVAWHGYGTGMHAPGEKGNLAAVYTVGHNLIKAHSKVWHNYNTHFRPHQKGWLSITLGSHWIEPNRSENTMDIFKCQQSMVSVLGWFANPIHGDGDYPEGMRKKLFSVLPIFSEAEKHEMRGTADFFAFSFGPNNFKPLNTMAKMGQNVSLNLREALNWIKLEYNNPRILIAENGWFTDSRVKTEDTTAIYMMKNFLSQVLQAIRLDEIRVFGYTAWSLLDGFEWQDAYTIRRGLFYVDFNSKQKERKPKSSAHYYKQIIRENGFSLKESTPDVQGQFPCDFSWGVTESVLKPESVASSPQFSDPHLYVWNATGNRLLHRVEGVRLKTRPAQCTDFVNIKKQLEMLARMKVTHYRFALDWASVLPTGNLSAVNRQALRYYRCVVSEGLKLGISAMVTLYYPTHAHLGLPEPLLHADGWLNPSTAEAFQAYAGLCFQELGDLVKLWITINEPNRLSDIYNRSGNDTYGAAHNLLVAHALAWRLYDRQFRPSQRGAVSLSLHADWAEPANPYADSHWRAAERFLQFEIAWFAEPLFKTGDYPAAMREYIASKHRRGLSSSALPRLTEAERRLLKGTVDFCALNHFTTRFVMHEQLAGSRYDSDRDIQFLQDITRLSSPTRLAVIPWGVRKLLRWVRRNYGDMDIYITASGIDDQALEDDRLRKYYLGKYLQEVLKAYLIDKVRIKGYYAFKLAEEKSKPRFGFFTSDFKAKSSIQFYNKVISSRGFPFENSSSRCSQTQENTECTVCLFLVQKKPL
Nature of the assay: BLI off-rate screening (Octet), crude supernatant.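 Further: supernatants tested at 25 µg/mL, dissociation from biosensors recorded in D-PBS with 0.1% BSA over 1800 s.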 In general terms: Biolayer interferometry detects binding as a change in optical thickness at a sensor tip.

cell surface receptor composed of FGFR1c and co-receptor beta-Klotho (KLB), sequence (P11362 22-822, chain 1 of 2): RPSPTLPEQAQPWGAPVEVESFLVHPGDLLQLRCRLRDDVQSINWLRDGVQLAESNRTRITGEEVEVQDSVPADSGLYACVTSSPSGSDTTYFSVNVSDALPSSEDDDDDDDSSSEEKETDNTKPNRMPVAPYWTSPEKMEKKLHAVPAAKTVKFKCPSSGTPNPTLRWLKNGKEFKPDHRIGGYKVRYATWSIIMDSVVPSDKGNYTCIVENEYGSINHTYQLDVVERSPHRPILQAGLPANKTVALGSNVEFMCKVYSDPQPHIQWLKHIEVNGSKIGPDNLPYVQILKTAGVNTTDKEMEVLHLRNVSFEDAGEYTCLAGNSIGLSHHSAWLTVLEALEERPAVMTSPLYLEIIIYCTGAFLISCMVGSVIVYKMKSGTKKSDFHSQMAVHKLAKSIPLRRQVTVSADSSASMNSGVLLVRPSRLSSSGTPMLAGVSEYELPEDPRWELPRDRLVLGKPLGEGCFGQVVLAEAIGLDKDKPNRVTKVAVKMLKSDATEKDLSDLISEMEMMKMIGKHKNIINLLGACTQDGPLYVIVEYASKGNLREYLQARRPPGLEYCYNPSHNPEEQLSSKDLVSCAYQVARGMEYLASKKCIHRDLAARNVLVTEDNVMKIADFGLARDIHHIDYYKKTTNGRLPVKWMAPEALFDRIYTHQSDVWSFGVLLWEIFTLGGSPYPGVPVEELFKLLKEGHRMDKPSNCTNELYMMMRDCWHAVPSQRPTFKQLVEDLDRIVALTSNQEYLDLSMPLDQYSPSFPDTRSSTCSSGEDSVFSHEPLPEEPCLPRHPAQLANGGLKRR
cell surface receptor composed of FGFR1c and co-receptor beta-Klotho (KLB), sequence (Q86Z14 whole entry, chain 2 of 2): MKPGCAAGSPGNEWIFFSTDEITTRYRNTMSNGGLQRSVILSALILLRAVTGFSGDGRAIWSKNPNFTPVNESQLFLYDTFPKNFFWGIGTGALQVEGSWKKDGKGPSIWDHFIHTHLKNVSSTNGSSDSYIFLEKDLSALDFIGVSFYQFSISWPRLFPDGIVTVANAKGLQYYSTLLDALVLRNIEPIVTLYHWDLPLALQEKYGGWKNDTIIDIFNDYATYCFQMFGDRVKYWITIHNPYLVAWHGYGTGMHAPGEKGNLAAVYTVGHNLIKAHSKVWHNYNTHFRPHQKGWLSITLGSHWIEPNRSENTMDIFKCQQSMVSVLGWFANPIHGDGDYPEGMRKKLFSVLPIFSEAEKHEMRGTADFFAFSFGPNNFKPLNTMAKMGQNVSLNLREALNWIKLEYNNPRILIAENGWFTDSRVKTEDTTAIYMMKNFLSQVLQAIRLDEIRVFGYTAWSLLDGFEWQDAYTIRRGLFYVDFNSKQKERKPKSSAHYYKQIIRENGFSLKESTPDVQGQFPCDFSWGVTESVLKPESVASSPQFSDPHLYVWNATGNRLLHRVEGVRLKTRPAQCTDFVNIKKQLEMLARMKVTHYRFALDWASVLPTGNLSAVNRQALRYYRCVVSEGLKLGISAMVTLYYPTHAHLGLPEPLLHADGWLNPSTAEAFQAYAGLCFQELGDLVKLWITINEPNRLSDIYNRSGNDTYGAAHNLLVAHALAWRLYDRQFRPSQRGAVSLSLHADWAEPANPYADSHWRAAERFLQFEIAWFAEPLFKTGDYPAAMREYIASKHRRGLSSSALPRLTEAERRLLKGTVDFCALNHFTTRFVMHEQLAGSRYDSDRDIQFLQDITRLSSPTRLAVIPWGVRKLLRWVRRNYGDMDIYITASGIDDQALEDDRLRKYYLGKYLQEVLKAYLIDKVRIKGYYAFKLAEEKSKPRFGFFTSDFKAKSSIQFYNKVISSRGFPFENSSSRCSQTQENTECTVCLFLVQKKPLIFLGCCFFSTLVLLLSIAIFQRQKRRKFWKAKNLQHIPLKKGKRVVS

B1: 16H7 light chain variant N93R (antibody, IgG4, V domains shown)
VH: not shown
VL: SYVLTQPPSVSVAPGQTARITCGGNNIGSESVHWYQQKPGQAPVLVVYDDSDRPSGIPERFSGSNSGNTATLTISRVEAGDEADYYCQVWDGRSDHVVFGGGTKLTVLG
notes: IgG4 backbone
Consider B1, for which, in assay [1], the “Mean E max, Luciferase reporter gene assay” value (“Mean E max” below) is 100% and the “Mean EC50, Luciferase reporter gene assay” value (shortened to “Mean EC50”) was 0.186 nM. Also, the koff in the assay with human beta-Klotho (KLB) was found to be 5e-05 s⁻¹.

B2: 16H7 light chain variant S51I (antibody, IgG4, V domains shown)
VH: not shown
VL: SYVLTQPPSVSVAPGQTARITCGGNNIGSESVHWYQQKPGQAPVLVVYDDIDRPSGIPERFSGSNSGNTATLTISRVEAGDEADYYCQVWDGNSDHVVFGGGTKLTVLG
notes: IgG4 backbone
Take B2: in assay [1], the “Mean E max” value is 102% and the “Mean EC50” value was 0.097 nM. In addition, the koff with human beta-Klotho (KLB) came to 5e-05 s⁻¹.

B3: 16H7 light chain variant S51L (antibody, IgG4, V domains shown)
VH: not shown
VL: SYVLTQPPSVSVAPGQTARITCGGNNIGSESVHWYQQKPGQAPVLVVYDDLDRPSGIPERFSGSNSGNTATLTISRVEAGDEADYYCQVWDGNSDHVVFGGGTKLTVLG
notes: IgG4 backbone
Take B3: in assay [1], the “Mean E max” value was determined as 97% and the “Mean EC50” value was 0.099 nM. In addition, in the assay with human beta-Klotho (KLB), the dissociation rate constant (koff) turned out to be 9.6e-05 s⁻¹.

B4: 16H7 light chain variant S51N (antibody, IgG4, V domains shown)
VH: not shown
VL: SYVLTQPPSVSVAPGQTARITCGGNNIGSESVHWYQQKPGQAPVLVVYDDNDRPSGIPERFSGSNSGNTATLTISRVEAGDEADYYCQVWDGNSDHVVFGGGTKLTVLG
notes: IgG4 backbone
With B4, in assay [1], the “Mean E max” value is 100% and the “Mean EC50” value amounted to 0.113 nM. Further, in the assay with human beta-Klotho (KLB), the koff turned out to be 5.3e-05 s⁻¹.

B5: 16H7 light chain variant S51T (antibody, IgG4, V domains shown)
VH: not shown
VL: SYVLTQPPSVSVAPGQTARITCGGNNIGSESVHWYQQKPGQAPVLVVYDDTDRPSGIPERFSGSNSGNTATLTISRVEAGDEADYYCQVWDGNSDHVVFGGGTKLTVLG
notes: IgG4 backbone
Take B5: in assay [1], the “Mean E max” value came out at 102% and the “Mean EC50” value stood at 0.121 nM. Besides, in the assay with human beta-Klotho (KLB), the off-rate constant (koff) was determined as 2.5e-05 s⁻¹.

B6: 16H7 light chain variant S94D (antibody, IgG4, V domains shown)
VH: not shown
VL: SYVLTQPPSVSVAPGQTARITCGGNNIGSESVHWYQQKPGQAPVLVVYDDSDRPSGIPERFSGSNSGNTATLTISRVEAGDEADYYCQVWDGNDDHVVFGGGTKLTVLG
notes: IgG4 backbone
Take B6: in assay [1], the “Mean E max” value is 103% and the “Mean EC50” value amounted to 0.122 nM. This molecule displayed a koff in the assay with human beta-Klotho (KLB) of 3.4e-05 s⁻¹.

B7: 16H7 light chain variant N93V (antibody, IgG4, V domains shown)
VH: not shown
VL: SYVLTQPPSVSVAPGQTARITCGGNNIGSESVHWYQQKPGQAPVLVVYDDSDRPSGIPERFSGSNSGNTATLTISRVEAGDEADYYCQVWDGVSDHVVFGGGTKLTVLG
notes: IgG4 backbone
For the molecule B7, in assay [1], the “Mean E max” value was 108% and the “Mean EC50” value amounted to 0.139 nM. Further, in the assay with human beta-Klotho (KLB), the koff was 4e-05 s⁻¹.

B8: 16H7 light chain variant N93S (antibody, IgG4, V domains shown)
VH: not shown
VL: SYVLTQPPSVSVAPGQTARITCGGNNIGSESVHWYQQKPGQAPVLVVYDDSDRPSGIPERFSGSNSGNTATLTISRVEAGDEADYYCQVWDGSSDHVVFGGGTKLTVLG
notes: IgG4 backbone
On to B8, for which, in assay [1], the “Mean E max” value came to 101% and the “Mean EC50” value was found to be 0.105 nM. The same molecule gave a koff with human beta-Klotho (KLB) of 3.4e-05 s⁻¹.

B9: 16H7 light chain variant S94C (antibody, IgG4, V domains shown)
VH: not shown
VL: SYVLTQPPSVSVAPGQTARITCGGNNIGSESVHWYQQKPGQAPVLVVYDDSDRPSGIPERFSGSNSGNTATLTISRVEAGDEADYYCQVWDGNCDHVVFGGGTKLTVLG
notes: IgG4 backbone
As for B9, in assay [1], the “Mean E max” value worked out at 99% and the “Mean EC50” value amounted to 0.138 nM. Further, the koff with human beta-Klotho (KLB) stood at 1e-07 s⁻¹.

B10: 16H7 light chain variant S94A (antibody, IgG4, V domains shown)
VH: not shown
VL: SYVLTQPPSVSVAPGQTARITCGGNNIGSESVHWYQQKPGQAPVLVVYDDSDRPSGIPERFSGSNSGNTATLTISRVEAGDEADYYCQVWDGNADHVVFGGGTKLTVLG
notes: IgG4 backbone
Regarding B10, in assay [1], the “Mean E max” value worked out at 99% and the “Mean EC50” value turned out to be 0.107 nM. Moreover, in the assay with human beta-Klotho (KLB), the off-rate constant (koff) was determined as 4.6e-05 s⁻¹.

B11: 16H7 light chain variant N93Y (antibody, IgG4, V domains shown)
VH: not shown
VL: SYVLTQPPSVSVAPGQTARITCGGNNIGSESVHWYQQKPGQAPVLVVYDDSDRPSGIPERFSGSNSGNTATLTISRVEAGDEADYYCQVWDGYSDHVVFGGGTKLTVLG
notes: IgG4 backbone
For B11, in assay [1], the “Mean E max” value is 105% and the “Mean EC50” value was found to be 0.108 nM. In the assay with human beta-Klotho (KLB), this molecule showed an off-rate constant (koff) of 6.5e-05 s⁻¹.

B12: 16H7 light chain variant N93T (antibody, IgG4, V domains shown)
VH: not shown
VL: SYVLTQPPSVSVAPGQTARITCGGNNIGSESVHWYQQKPGQAPVLVVYDDSDRPSGIPERFSGSNSGNTATLTISRVEAGDEADYYCQVWDGTSDHVVFGGGTKLTVLG
notes: IgG4 backbone
As to B12, in assay [1], the “Mean E max” value was determined as 103% and the “Mean EC50” value is 0.161 nM. Further, the dissociation rate constant (koff) with human beta-Klotho (KLB) amounted to 3.1e-05 s⁻¹.

B13: 16H7 light chain variant S94F (antibody, IgG4, V domains shown)
VH: not shown
VL: SYVLTQPPSVSVAPGQTARITCGGNNIGSESVHWYQQKPGQAPVLVVYDDSDRPSGIPERFSGSNSGNTATLTISRVEAGDEADYYCQVWDGNFDHVVFGGGTKLTVLG
notes: IgG4 backbone
On to B13, for which, in assay [1], the “Mean E max” value came to 100% and the “Mean EC50” value is 0.132 nM. In the assay with human beta-Klotho (KLB), the koff is 1e-07 s⁻¹.

B14: 16H7 light chain variant S51R (antibody, IgG4, V domains shown)
VH: not shown
VL: SYVLTQPPSVSVAPGQTARITCGGNNIGSESVHWYQQKPGQAPVLVVYDDRDRPSGIPERFSGSNSGNTATLTISRVEAGDEADYYCQVWDGNSDHVVFGGGTKLTVLG
notes: IgG4 backbone
Regarding B14, in assay [1], the “Mean E max” value is 98% and the “Mean EC50” value came out at 0.103 nM. Besides, the off-rate (koff) with human beta-Klotho (KLB) was 0.00012 s⁻¹.

B15: 16H7 light chain variant S51Q (antibody, IgG4, V domains shown)
VH: not shown
VL: SYVLTQPPSVSVAPGQTARITCGGNNIGSESVHWYQQKPGQAPVLVVYDDQDRPSGIPERFSGSNSGNTATLTISRVEAGDEADYYCQVWDGNSDHVVFGGGTKLTVLG
notes: IgG4 backbone
With B15, in assay [1], the “Mean E max” value is 107% and the “Mean EC50” value worked out at 0.115 nM. The same molecule showed a dissociation rate constant (koff) with human beta-Klotho (KLB) of 6.5e-05 s⁻¹.

B16: 16H7 light chain variant S94E (antibody, IgG4, V domains shown)
VH: not shown
VL: SYVLTQPPSVSVAPGQTARITCGGNNIGSESVHWYQQKPGQAPVLVVYDDSDRPSGIPERFSGSNSGNTATLTISRVEAGDEADYYCQVWDGNEDHVVFGGGTKLTVLG
notes: IgG4 backbone
Take B16: in assay [1], the “Mean E max” value is 100% and the “Mean EC50” value came to 0.122 nM. This molecule displayed a koff with human beta-Klotho (KLB) of 1.4e-05 s⁻¹.

B17: 16H7 light chain variant S31N (antibody, IgG4, V domains shown)
VH: not shown
VL: SYVLTQPPSVSVAPGQTARITCGGNNIGSENVHWYQQKPGQAPVLVVYDDSDRPSGIPERFSGSNSGNTATLTISRVEAGDEADYYCQVWDGNSDHVVFGGGTKLTVLG
notes: IgG4 backbone
As for B17, in assay [1], the “Mean E max” value worked out at 99% and the “Mean EC50” value came to 0.124 nM. Further, the koff with human beta-Klotho (KLB) was 7.6e-05 s⁻¹.

B18: 16H7 light chain variant S31H (antibody, IgG4, V domains shown)
VH: not shown
VL: SYVLTQPPSVSVAPGQTARITCGGNNIGSEHVHWYQQKPGQAPVLVVYDDSDRPSGIPERFSGSNSGNTATLTISRVEAGDEADYYCQVWDGNSDHVVFGGGTKLTVLG
notes: IgG4 backbone
B18: in assay [1], the “Mean E max” value worked out at 110% and the “Mean EC50” value was found to be 0.158 nM. The molecule further showed a dissociation rate constant (koff) with human beta-Klotho (KLB) of 4.5e-05 s⁻¹.
